Measurements reported in patent US20230025280A1, “PH RESPONSIVE COMPOSITIONS, FORMULATIONS, AND METHODS OF IMAGING A TUMOR” (ONCONANO MEDICINE, INC, priority 2019, published 2023).
Several values for one entry are separate records, joined by “and”; a condition that tells them apart may be missing. Identical values can stand only once.

Assay: Phase 1 (1a/1b) pharmacokinetics: plasma concentrations after single IV dose (validated direct fluorescence reader assay), noncompartmental analysis
Type: in vivo, human
Conditions: Phase 1a
From the text: Phase 1 is a single-Principal Investigator, non-randomized, open-label, single-arm, cross-sectional study to evaluate the safety, PK profile, and imaging feasibility of Compound 1 in patients with solid cancers who require surgical excision. The main purpose of this study was to investigate the safety, PK, and feasibility of Compound 1 as an intra-operative optical imaging agent to detect tumors and metastatic lymph nodes in solid cancers. The study was intended to investigate the optimal dose range of Compound 1 for an adequate TBR and CNR of fluorescence obtained intraoperatively at 24 (±8) hours post dosing and with ex vivo specimens using ICG compatible cameras and imaging devices.
Phase 1 enrolled 30 patients with solid cancers (HNSCC, breast cancer, esophageal cancer, or colorectal cancer) who have a biopsy-confirmed diagnosis of respective tumor types and are scheduled to undergo surgical resection of the tumor. The study design included a standard 3+3 design for the dose-escalation portion (Phase 1a; N=18 maximum) followed by a dose-expansion portion (Phase 1b; N=15). All patients received a single I.V. dose of Compound 1, followed by routine surgery approximately 24 hours after infusion of Compound 1.
Phase 1a was a dose-finding study performed in 5 cohorts of 3 patients each. The dose levels evaluated were […], and 1.2 mg/kg, in this sequence. Inter-cohort dose escalation took place after the last patient in the previous cohort completed the Day 10 safety assessment. Safety, PK, and imaging feasibility were evaluated in both the Phase 1a and 1b portions of the study. Patient safety is assessed during the study and for up to 10 days post-dose.
Study design: Single Compound 1 IV dose was administered as a 1-5 minute IV infusion to patients in five cohorts (0.1, 0.3, 0.5, 0.8, and 1.2 mg/kg) with three patients per cohort in Phase 1a and 15 patients at a dose of 1.2 mg/kg in Phase 1b. Patient demographic information including tumor types is presented in Table 4 and 5 for Phase 1a and Table 5 for Phase 1b. Intertek Pharmaceutical Services (San Diego, Calif.) determined Compound 1 plasma concentrations using a validated direct fluorescence reader assay. Pacific BioDevelopment (Davis, Calif.) performed the PK analysis.
Sample collection: Blood samples were collected prior to infusion and at 10 minutes and 0.5, 1, 3, 8, 24, 48, 72, and 240 hours after infusion.
Analysis: Plasma concentration versus time profiles were generated for each patient. Pharmacokinetic parameters were estimated using Phoenix WinNonlin (version 8.0). According to SOP, concentrations reported as BQL were set to 0 except for the 0.5 h sample for subject #ON1102, which was set to LLOQ/2 ([…] value used in parameter calculations) and the 24 and 48 h samples.
If the coefficient of determination for the terminal slope estimation was less than 0.8, T1/2 was not reported (NR). AUC extrapolated to infinity is not reported for any data set because in all cases the % extrapolated AUC was greater than 20% and thus the AUCinf estimate would not be reliable. The concentration at 10 minutes, the first time point measured (C10m), was also reported for each patient.
The area under the plasma concentration versus time curves from dosing to the last time point with a measurable concentration (AUClast) was estimated by the linear trapezoid method. The last three or more time points were used to estimate the elimination rate constant (λz) which was used to estimate the terminal-phase half-life (T1/2) and AUC from zero to infinity (AUCINF) from the following equations: […]

[1] = 0.5 mg/kg single IV, individual subject
[2] = 0.8 mg/kg single IV, individual subject
[3] = 1.2 mg/kg single IV, individual subject

PEO90-140-b-P(DBA60-150-r-ICG0-3-r-AMA0-3) [Compound 1]
Cmax [1]: 22.7 µg/mL and 17.1 µg/mL and 14.0 µg/mL
Tmax [1]: 180 min and 30 min
AUC0-24 hr (0.5 mg/kg single IV, mean): 289 µg·h/mL
AUCall (0.5 mg/kg single IV, mean): 835 µg·h/mL
AUClast (0.5 mg/kg single IV, mean): 410 µg·h/mL
C10 m (0.5 mg/kg single IV, mean): 17.3 µg/mL
Cmax (0.5 mg/kg single IV, mean): 17.9 µg/mL
Tmax (0.5 mg/kg single IV, mean): 130 min
AUC0-24 hr (0.5 mg/kg single IV, median): 314 µg·h/mL
AUCall (0.5 mg/kg single IV, median): 314 µg·h/mL
AUClast (0.5 mg/kg single IV, median): 160 µg·h/mL
C10 m (0.5 mg/kg single IV, median): 16.2 µg/mL
Cmax (0.5 mg/kg single IV, median): 17.1 µg/mL
Tmax (0.5 mg/kg single IV, median): 180 min
Plasma Conc (0.500 mg/kg, 0.170 hr, individual subject): 22.0 µg/mL and 16.2 µg/mL and 13.6 µg/mL
Plasma Conc (0.500 mg/kg, 0.170 hr, mean): 17.3 µg/mL
Plasma Conc (0.500 mg/kg, 0.500 hr, individual subject): 16.7 µg/mL and 15.9 µg/mL and 14.0 µg/mL
Plasma Conc (0.500 mg/kg, 0.500 hr, mean): 15.5 µg/mL
Plasma Conc (0.500 mg/kg, 1.00 hr, individual subject): 15.8 µg/mL and 13.8 µg/mL and 12.6 µg/mL
Plasma Conc (0.500 mg/kg, 1.00 hr, mean): 14.1 µg/mL
Plasma Conc (0.500 mg/kg, 3.00 hr, individual subject): 22.7 µg/mL and 17.1 µg/mL and 11.9 µg/mL
Plasma Conc (0.500 mg/kg, 3.00 hr, mean): 17.2 µg/mL
Plasma Conc (0.500 mg/kg, 8.00 hr, individual subject): 19.3 µg/mL and 14.6 µg/mL and 13.9 µg/mL
Plasma Conc (0.500 mg/kg, 8.00 hr, mean): 15.9 µg/mL
Plasma Conc (0.500 mg/kg, 24.0 hr, individual subject): BQL (BQL (<10 μg/mL), set = 0 for PK analysis) (2×) and 12.4 μg/mL
Plasma Conc (0.500 mg/kg, 24.0 hr, mean): 4.13 µg/mL
Plasma Conc (0.500 mg/kg, 48.0 hr, individual subject): BQL (BQL (<10 μg/mL), set = 0 for PK analysis) (2×) and 14.0 μg/mL
Plasma Conc (0.500 mg/kg, 48.0 hr, mean): 4.67 µg/mL
Plasma Conc (0.500 mg/kg, 72.0 hr, individual subject): BQL (BQL (<10 μg/mL), set = 0 for PK analysis) (2×) and 12.0 μg/mL
Plasma Conc (0.500 mg/kg, 72.0 hr, mean): 4.00 µg/mL
Plasma Conc (0.500 mg/kg, 240 hr, individual subject): BQL (BQL (<10 μg/mL), set = 0 for PK analysis)
Plasma Conc (0.500 mg/kg, 240 hr, mean): 0.00 µg/mL
Mean AUC0-24h (0.8 mg/kg): 383 µg·h/mL
Mean C10 (0.8 mg/kg): 19.8 µg/mL
Mean terminal-phase half-life (0.8 mg/kg): 79.0 h
AUC0-24 hr [2]: 416 µg·h/mL and 354 µg·h/mL and 380 µg·h/mL
AUCall [2]: 905 µg·h/mL and 518 µg·h/mL and 1790 µg·h/mL
AUClast [2]: 756 µg·h/mL and 354 µg·h/mL and 927 µg·h/mL
C10 m [2]: 21.7 µg/mL and 19.6 µg/mL and 18.2 µg/mL
Cmax [2]: 23.0 µg/mL and 19.6 µg/mL and 18.2 µg/mL
T1/2 [2]: 74.5 h and 83.4 h
Tmax [2]: 60 min and 10.2 min
AUC0-24 hr (0.8 mg/kg single IV, mean): 383 µg·h/mL
AUCall (0.8 mg/kg single IV, mean): 1070 µg·h/mL
AUClast (0.8 mg/kg single IV, mean): 679 µg·h/mL
C10 m (0.8 mg/kg single IV, mean): 19.8 µg/mL
Cmax (0.8 mg/kg single IV, mean): 20.3 µg/mL
T1/2 (0.8 mg/kg single IV, mean): 79.0 h
Tmax (0.8 mg/kg single IV, mean): 26.8 min
AUC0-24 hr (0.8 mg/kg single IV, median): 380 µg·h/mL
AUCall (0.8 mg/kg single IV, median): 905 µg·h/mL
AUClast (0.8 mg/kg single IV, median): 756 µg·h/mL
C10 m (0.8 mg/kg single IV, median): 19.6 µg/mL
Cmax (0.8 mg/kg single IV, median): 19.6 µg/mL
T1/2 (0.8 mg/kg single IV, median): 79.0 h
Tmax (0.8 mg/kg single IV, median): 10.2 min
Plasma Conc (0.800 mg/kg, 0.170 hr, individual subject): 21.7 µg/mL and 19.6 µg/mL and 18.2 µg/mL
Plasma Conc (0.800 mg/kg, 0.170 hr, mean): 19.8 µg/mL
Plasma Conc (0.800 mg/kg, 0.500 hr, individual subject): 19.3 µg/mL and 17.6 µg/mL and 17.1 µg/mL
Plasma Conc (0.800 mg/kg, 0.500 hr, mean): 18.0 µg/mL
Plasma Conc (0.800 mg/kg, 1.00 hr, individual subject): 23.0 µg/mL and 18.2 µg/mL and 18.0 µg/mL
Plasma Conc (0.800 mg/kg, 1.00 hr, mean): 19.7 µg/mL
Plasma Conc (0.800 mg/kg, 3.00 hr, individual subject): 20.0 µg/mL and 14.4 µg/mL and 17.6 µg/mL
Plasma Conc (0.800 mg/kg, 3.00 hr, mean): 17.3 µg/mL
Plasma Conc (0.800 mg/kg, 8.00 hr, individual subject): 16.7 µg/mL and 15.1 µg/mL and 16.6 µg/mL
Plasma Conc (0.800 mg/kg, 8.00 hr, mean): 16.1 µg/mL
Plasma Conc (0.800 mg/kg, 24.0 hr, individual subject): 16.0 μg/mL and 13.7 μg/mL (2×)
Plasma Conc (0.800 mg/kg, 24.0 hr, mean): 14.5 µg/mL
Plasma Conc (0.800 mg/kg, 48.0 hr, individual subject): 12.4 μg/mL and BQL (BQL (<10 μg/mL), set = 0 for PK analysis) and 10.8 μg/mL
Plasma Conc (0.800 mg/kg, 48.0 hr, mean): 7.73 µg/mL
Plasma Conc (0.800 mg/kg, 72.0 hr, individual subject): BQL (BQL (<10 μg/mL), set = 0 for PK analysis) (2×) and 10.3 μg/mL
Plasma Conc (0.800 mg/kg, 72.0 hr, mean): 3.43 µg/mL
Plasma Conc (0.800 mg/kg, 240 hr, individual subject): BQL (BQL (<10 μg/mL), set = 0 for PK analysis)
Plasma Conc (0.800 mg/kg, 240 hr, mean): 0.00 µg/mL
Mean AUC0-24h (1.2 mg/kg): 495 µg·h/mL
Mean C10 (1.2 mg/kg): 31.7 µg/mL
Mean terminal-phase half-life (1.2 mg/kg): 36.5 h
AUC0-24 hr [3]: 348 µg·h/mL and 563 µg·h/mL and 574 µg·h/mL
AUCall [3]: 348 µg·h/mL and 1160 µg·h/mL and 1020 µg·h/mL
AUClast [3]: 184 µg·h/mL and 970 µg·h/mL and 891 µg·h/mL
C10 m [3]: 28.0 µg/mL and 34.1 µg/mL and 33.0 µg/mL
Cmax [3]: 28.0 µg/mL and 34.1 µg/mL and 33.0 µg/mL
T1/2 [3]: 32.5 h and 46.5 h and 30.6 h
Tmax [3]: 10.2 min
